Source: patent publication US20250171562A1

B1: CIgG4B1A1(G4S3) (Fc fusion)
chain 1: GPPCPPCPAPEFLGGPSVFLFPPKPKDTLMISRTPEVTCVVVDVSQEDPEVQFNWYVDGVEVHNAKTKPREEQFNSTYRVVSVLTVLHQDWLNGKEYKCKVSNKGLPSSIEKTISKAKGQPREPQVYTLPPCQEEMTKNQVSLWCLVKGFYPSDIAVEWESNGQPENNYKTTPPVLDSDGSFFLYSRLTVDKSRWQEGNVFSCSVMHEALHNHYTQKSLSLSLGKGGGGSGGGGSGGGGSQVQLQESGGGLVQTGGSLRLSCAVHGRTFSNTGMGWFRQAPGNERQFVAIISPSGTSTYYADSVKGRFTISRDPAKNTVYLQMNSLKMDDTAVYYCAASYGSNWSTLRHQRRNEYDAWGQGTQVAVS
chain 2: GPPCPPCPAPEFLGGPSVFLFPPKPKDTLMISRTPEVTCVVVDVSQEDPEVQFNWYVDGVEVHNAKTKPREEQFNSTYRVVSVLTVLHQDWLNGKEYKCKVSNKGLPSSIEKTISKAKGQPREPQVCTLPPSQEEMTKNQVSLSCAVKGFYPSDIAVEWESNGQPENNYKTTPPVLDSDGSFFLVSRLTVDKSRWQEGNVFSCSVMHEALHNHYTQKSLSLSLGKGGGGSGGGGSGGGGSEVQLLESGGGLVQPGGSLRLSCAASGFTFGNYDMAWVRQAPGKRPEWVSSIDTGGDITHYADSVKGRFTISRDNAKNTLYLQMNSLRPEDTAVYWCATDEEYALGPNEFDYYGQGTLVTVSS
B2: sdAb A1 (VHH)
VHH: EVQLLESGGGLVQPGGSLRLSCAASGFTFGNYDMAWVRQAPGKRPEWVSSIDTGGDITHYADSVKGRFTISRDNAKNTLYLQMNSLRPEDTAVYWCATDEEYALGPNEFDYYGQGTLVTVSS
B3: A2+B1 (protein)
VHH 1: EVQLLESGGGLVQPGGSLRLSCAASGFRFGNYDMAWVRQAPGKRYEWVSSIDTGGDITHYADSVKGRFTISRDNAKNTLYLQMNSLRPEDTAEYWCATDEEYALGPNEFDYYGQGTLVTVS
VHH 2: QVQLQESGGGLVQTGGSLRLSCAVHGRTFSNTGMGWFRQAPGNERQFVAIISPSGTSTYYADSVKGRFTISRDPAKNTVYLQMNSLKMDDTAVYYCAASYGSNWSTLRHQRRNEYDAWGQGTQVAVS
B4: A2+B3 (protein)
VHH 1: EVQLLESGGGLVQPGGSLRLSCAASGFRFGNYDMAWVRQAPGKRYEWVSSIDTGGDITHYADSVKGRFTISRDNAKNTLYLQMNSLRPEDTAEYWCATDEEYALGPNEFDYYGQGTLVTVS
VHH 2: DVQLQESGGGLVQAGGSLRLSCAASGFIFRLAGMSWVRQAPGKGFEWVSGITMDGSTTNYADSVKGRFTISRDNSKNRLYLQMNSLKPEDTAVYYCARGAKGGYNDPRGQGTQVTVS
B5: sdAb A2 (VHH)
VHH: EVQLLESGGGLVQPGGSLRLSCAASGFRFGNYDMAWVRQAPGKRYEWVSSIDTGGDITHYADSVKGRFTISRDNAKNTLYLQMNSLRPEDTAEYWCATDEEYALGPNEFDYYGQGTLVTVS
B6: A2+B2 (protein)
VHH 1: EVQLLESGGGLVQPGGSLRLSCAASGFRFGNYDMAWVRQAPGKRYEWVSSIDTGGDITHYADSVKGRFTISRDNAKNTLYLQMNSLRPEDTAEYWCATDEEYALGPNEFDYYGQGTLVTVS
VHH 2: QVQLVESGGGLVQAGGSLRLSCAVFGSTFSNNVADWYRQAPGKQRELVARISASGATREYGDSVKGRFTISRDDAKNTMYLQMNNLKPEDTAVYRCHKIEWEDLSRKDYWGQGTQVTVS

Experiments:
[1] = target: mixture of three Der p 2 specific recombinant human IgE clones H10, H12, P4E (human) (UniProt P01854); assay: RBL-SX38 IgE displacement, FACS
Chain of mixture of three Der p 2 specific recombinant human IgE clones H10, H12, P4E (human) (P01854 other isoform, or with tags, fused parts or gaps): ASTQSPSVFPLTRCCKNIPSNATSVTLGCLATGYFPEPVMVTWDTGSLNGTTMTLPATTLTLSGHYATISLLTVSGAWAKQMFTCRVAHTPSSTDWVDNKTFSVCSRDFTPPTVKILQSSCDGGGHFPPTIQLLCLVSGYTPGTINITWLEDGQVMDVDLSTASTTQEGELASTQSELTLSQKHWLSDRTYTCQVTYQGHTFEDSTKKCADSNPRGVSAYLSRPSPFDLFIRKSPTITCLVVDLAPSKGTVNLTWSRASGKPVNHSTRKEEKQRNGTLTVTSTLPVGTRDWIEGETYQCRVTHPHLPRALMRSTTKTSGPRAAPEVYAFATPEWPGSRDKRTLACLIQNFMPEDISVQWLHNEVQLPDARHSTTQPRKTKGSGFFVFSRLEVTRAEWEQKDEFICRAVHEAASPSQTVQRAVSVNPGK

[2] = target: IgE on basophils of allergic donors (human) (UniProt P01854); assay: displacement of IgE from FcεRI on basophils, whole blood of an allergic donor, flow cytometry of surface IgE [panel B]
Chain of IgE on basophils of allergic donors (human) (P01854 1-428): as the sequence (P01854 other isoform, or with tags, fused parts or gaps) above, with K428L counted along it

[3] = target: IgE on basophils of allergic donors (human) (UniProt P01854); assay: displacement of IgE from FcεRI on basophils, whole blood of an allergic donor, flow cytometry of surface IgE [panel C]
[4] = target: IgE on basophils of allergic donors (human) (UniProt P01854); assay: cell-based or functional assay
[5] = target: IgE on basophils of allergic donors (human) (UniProt P01854); assay: IgE surface stain on donor basophils after 1 µM sdAb, flow cytometry
[6] = target: IgE on basophils of allergic donors (human) (UniProt P01854); assay: IgE surface stain on donor basophils, flow cytometry

Binder	Max effect/effect 1 µM [1]	displacement effect on IgE surface expression [6]	further results
B1	99%		EC50 [1]: 14.1 nM; EC50 (read off the curve) [2]: 6 nM; EC50 (read off the curve) [3]: 4 nM
B2	40%		fold decrease in rDerp2-induced activation of basophils of a HDM allergic donor (% CD63 pos basophils) [4]: 10 fold; displacement effect measured by IgE expression [5]: 16%
B3		100%	
B4		70%	
B5		70%	
B6		100%	
